According to article PMC7910587:

Molecular target: IQGAP1 (Ras GTPase-activating-like protein IQGAP1) (human (endogenous in INT 407)) (UniProt P46940)
Assay: co-IP; INT 407 cells non-infected or infected for 45 min with C. jejuni wild-type strain (F38011 or 81-176) or the ∆ciaD mutant; lysis in IP buffer with 50 mM NaCl; IP with mouse anti-IQGAP1 and Protein A/G agarose; immunoblots for RacGAP1, Rac1, Erk 1/2

Chain of UniProt P46940 (P46940 whole entry): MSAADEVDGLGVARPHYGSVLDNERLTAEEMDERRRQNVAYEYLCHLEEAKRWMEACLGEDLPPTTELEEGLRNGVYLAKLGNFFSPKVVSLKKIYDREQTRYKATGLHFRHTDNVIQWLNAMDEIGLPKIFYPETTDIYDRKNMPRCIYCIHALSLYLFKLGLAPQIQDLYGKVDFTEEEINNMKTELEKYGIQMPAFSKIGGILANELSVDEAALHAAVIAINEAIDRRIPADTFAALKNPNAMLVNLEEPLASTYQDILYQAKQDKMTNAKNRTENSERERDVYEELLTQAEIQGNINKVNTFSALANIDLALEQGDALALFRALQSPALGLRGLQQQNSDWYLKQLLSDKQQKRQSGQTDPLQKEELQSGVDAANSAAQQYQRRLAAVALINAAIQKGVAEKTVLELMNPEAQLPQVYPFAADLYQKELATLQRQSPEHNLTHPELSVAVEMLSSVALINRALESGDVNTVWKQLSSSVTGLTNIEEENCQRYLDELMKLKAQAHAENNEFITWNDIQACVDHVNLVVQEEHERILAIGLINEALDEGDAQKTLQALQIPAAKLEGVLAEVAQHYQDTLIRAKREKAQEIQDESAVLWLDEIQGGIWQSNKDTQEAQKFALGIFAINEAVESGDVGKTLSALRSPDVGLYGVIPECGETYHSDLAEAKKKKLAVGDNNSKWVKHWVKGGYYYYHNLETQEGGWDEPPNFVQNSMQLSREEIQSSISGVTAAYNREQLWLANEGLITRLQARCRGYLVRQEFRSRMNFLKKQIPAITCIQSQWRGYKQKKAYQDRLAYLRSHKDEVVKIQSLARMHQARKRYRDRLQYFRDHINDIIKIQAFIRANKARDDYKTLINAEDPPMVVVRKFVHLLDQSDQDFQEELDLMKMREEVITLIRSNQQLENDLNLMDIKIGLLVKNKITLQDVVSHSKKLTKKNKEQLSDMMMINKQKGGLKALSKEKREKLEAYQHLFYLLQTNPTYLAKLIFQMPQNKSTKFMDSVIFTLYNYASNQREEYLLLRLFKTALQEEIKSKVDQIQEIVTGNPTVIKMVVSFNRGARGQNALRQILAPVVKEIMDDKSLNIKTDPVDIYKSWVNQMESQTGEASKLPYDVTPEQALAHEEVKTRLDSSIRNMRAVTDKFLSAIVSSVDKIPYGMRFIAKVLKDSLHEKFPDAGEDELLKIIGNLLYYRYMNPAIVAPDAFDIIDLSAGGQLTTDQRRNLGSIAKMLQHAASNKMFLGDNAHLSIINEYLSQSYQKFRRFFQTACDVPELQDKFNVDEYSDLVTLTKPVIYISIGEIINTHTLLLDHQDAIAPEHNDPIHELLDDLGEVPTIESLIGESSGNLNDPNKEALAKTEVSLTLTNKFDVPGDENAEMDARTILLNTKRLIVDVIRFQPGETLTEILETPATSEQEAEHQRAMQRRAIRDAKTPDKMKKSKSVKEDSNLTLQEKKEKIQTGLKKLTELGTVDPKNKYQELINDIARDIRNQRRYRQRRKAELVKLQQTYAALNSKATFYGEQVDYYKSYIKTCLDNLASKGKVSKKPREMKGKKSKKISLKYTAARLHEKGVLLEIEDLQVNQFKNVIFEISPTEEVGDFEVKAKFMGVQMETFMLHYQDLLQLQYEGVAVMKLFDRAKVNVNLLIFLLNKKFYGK

“CiaD effector protein of the C. jejuni F38011 wild-type strain (from UniProt Q0PAA2 1-163) (natural protein)” showed a reduction of RacGAP1 in the IQGAP1 complex on infection with the wild-type strain of 50%.
